Source: article PMC10960945, “A nanobody inhibitor of Fascin-1 actin-bundling activity and filopodia formation” (Open Biology, 2024)
Numbering of substitutions follows the chain as printed.

B1: Nb 3G11 (VHH)
VHH: QVQLQESGGGLVQAGGSLRLSCAVSGRLNSRYSMGWFRQAPGKEREFVAVVKWTTGGTMYADSVKGRFTISRDNRKNTVYLQMNTLKPEDTALYYCASRPDYSNSYYYTTVSDYSDWGQGTQVTVSS
notes: also called nanobody 3G11; not shown: His-tag, C-terminal, kept
B2: Nb 3B9 (VHH)
VHH: QVQLQESGGGLVQAGGSLRLSCAASGRTFSSYAMGWFRQAPGMEREFVAAIPWIGGNTYYADSVKGRFTISRDNAKTLYLLMNSLKPEDTALYYCAARAHSYVLSTSPSHYDYWGQGTQVTVSS
notes: Eluted in SEC as a dimer and a monomer population; the two were kept separate in the later assays and counted as two of the 14 Nbs; not shown: His-tag, C-terminal, kept
B3: Nb 3G9 (VHH)
VHH: B2 VHH with G16D, G26R, F29S, S30N, S31T, M43K
notes: as for B2
B4: Nb 3H7 (VHH)
VHH: QVQLQESGGGLVQAGGSLRLSCAGPVRAFNTYAMGWFRQAPGKEREFVAAITRSGDVTYYSNSVKGRFTISRENAKNTVYLHMNSLKPEDTAVYSCAADAQLTPLNPRAQEYAYWGQGTQVTVSS
notes: also called nanobody 3H7; not shown: His-tag, C-terminal, kept

Biological target: Fascin-1 1-493 (full-length human Fascin-1 WT, untagged) (human, UniProt Q16658)
Test: pull-down; in vitro co-precipitation of recombinant proteins: His-tagged Nbs immobilised on Nickel Sepharose as bait for untagged Fascin-1; SDS-PAGE
Conditions: both partners purified

Binding result, binds:
B1
B2
B3
B4
